Like-named read-outs stand apart in the source and are kept apart here.
How the values were obtained:
AUC [1] = target: the molecule itself; experiment: AUC
AUC [2] = target: the molecule itself; experiment: AUC; remark: listed apart in the source

B1: wild type murine CXCL4 (natural protein, mouse, UniProt Q9Z126 30-105, looked up)
chain: VTSAGPEESDGDLSCVCVKTISSGIHLKHITSLEVIKAGRHCAVPQLIATLKNGRKICLDRQAPLYKKVIKKILES
stoichiometry N (AUC [1]): 2
stoichiometry N (AUC [2]): 4
